Results: IntAct's records for PubMed 19851283

B1: Transcription factor HFR1 (Arabidopsis thaliana (Mouse-ear cress)), Q9FE22 (parent)
chain: MSNNQAFMELGWRNDVGSLAVKDQGMMSERARSDEDRLINGLKWGYGYFDHDQTDNYLQIVPEIHKEVENAKEDLLVVVPDEHSETDDHHHIKDFSERSDHRFYLRNKHENPKKRRIQVLSSDDESEEFTREVPSVTRKGSKRRRRDEKMSNKMRKLQQLVPNCHKTDKVSVLDKTIEYMKNLQLQLQMMSTVGVNPYFLPATLGFGMHNHMLTAMASAHGLNPANHMMPSPLIPALNWPLPPFTNISFPHSSSQSLFLTTSSPASSPQSLHGLVPYFPSFLDFSSHAMRRL
partner: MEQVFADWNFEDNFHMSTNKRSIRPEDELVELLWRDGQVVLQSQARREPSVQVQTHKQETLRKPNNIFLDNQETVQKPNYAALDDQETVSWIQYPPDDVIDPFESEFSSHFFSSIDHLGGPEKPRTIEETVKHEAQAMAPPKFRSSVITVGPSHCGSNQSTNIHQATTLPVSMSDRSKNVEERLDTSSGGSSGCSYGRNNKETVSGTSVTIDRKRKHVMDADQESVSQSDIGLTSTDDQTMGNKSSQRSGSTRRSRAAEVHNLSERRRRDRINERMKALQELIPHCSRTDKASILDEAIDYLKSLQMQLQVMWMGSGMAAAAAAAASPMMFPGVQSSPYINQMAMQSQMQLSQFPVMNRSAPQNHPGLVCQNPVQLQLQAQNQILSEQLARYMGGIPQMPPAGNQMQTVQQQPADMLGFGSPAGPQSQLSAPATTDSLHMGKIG
B2: Transcription factor HFR1 (Arabidopsis thaliana (Mouse-ear cress)), Q9FE22 (parent)
chain: B1 chain
partner: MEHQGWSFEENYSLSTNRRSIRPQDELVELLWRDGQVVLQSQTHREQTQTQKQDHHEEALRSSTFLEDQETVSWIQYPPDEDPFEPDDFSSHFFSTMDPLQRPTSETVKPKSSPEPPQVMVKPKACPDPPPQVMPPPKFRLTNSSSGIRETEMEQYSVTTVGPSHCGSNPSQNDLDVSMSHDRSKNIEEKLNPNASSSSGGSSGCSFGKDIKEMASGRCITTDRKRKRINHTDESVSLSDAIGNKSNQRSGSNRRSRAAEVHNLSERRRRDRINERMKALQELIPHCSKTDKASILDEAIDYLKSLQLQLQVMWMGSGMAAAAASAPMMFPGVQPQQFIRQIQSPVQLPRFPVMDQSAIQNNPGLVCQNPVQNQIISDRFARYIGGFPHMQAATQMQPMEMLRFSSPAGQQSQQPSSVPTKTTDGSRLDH

Variants of: B1
Conditions: with pif5_arath PIF5, Q84LH8

Variant	effect of a mutation on the interaction
V172D	disrupting interaction
L173E	disrupting interaction

Variants of: B2
Conditions: with pif4_arath PIF4, Q8W2F3

Variant	effect of a mutation on the interaction
V172D	disrupting interaction
L173E	disrupting interaction
